# The nanobody polyreactivity screen of Harvey et al. (2022)
# Assay: yeast display, Sf9 membrane polyspecificity reagent, FACS + sequencing; frameworks hold sequencing errors
# Summary of the method: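 Nanobodies from a synthetic yeast display library (Saccharomyces cerevisiae BJ5465), induced 36–48 hours with galactose, were stained 1 hour at 4 °C with 10% biotinylated, detergent-solubilized Sf9 membrane reagent, enriched on streptavidin microbeads, then FACS-sorted. Anti-HA (expression) and streptavidin (reagent binding) fluorescence set low and high (top ~1%) gates. Polyreactivity labels come from the gate of origin. Genes were colony-PCR amplified, MiSeq 2 × 250 sequenced and filtered by CDR length.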
row,Sequence,polyreactivity (PSR sort gate)
1,QVQHVESGGGLVQAGGSLRLSCAASGIFVDNAMGWYRQARGKERELVAAITSSTDSTYYADSVKGRFPISRDNAKNTVYLQINSLNPEDSAVYYCAVARPGGFYFLVHYGYGYWGQGTQVTVSS,low polyreactivity
2,QVQLVESGGGLVQAGVSLRLSCAASGRLFYRYAMGWYRQAPGKERELVAGISRGGSTNYADSVKGRFTISRDNAKNTVYLLMKSLKPEDSAVYYCAADAKRTLSYEFGYWGQGTQVTVSS,high polyreactivity
3,QVQLVESGGGLVQAGGSLRLSCAASGSIFWKYAMGWYRQAPGKERELVAAISWSDGSTYYADSVKGRFTISRDNAKNTVYLQMNSLKPEVTAVYYCNTPPQWLGRYITITFDYWGQGTQVTVSS,low polyreactivity
4,QVQLVESGGGLVQAGGSLRLSCAASGRTFDLYAMGWYRQAPGKERELVATISRTGSTNYADSVKGRFTISRDNAKNTVYLQMNSLKPEDTAVYYCNADVPVSRWLRHGYYTVGYDYWGQGTQVTVSS,low polyreactivity
5,QVQLVESGGGLVQAGGSLRLSCAASGRIFTIYVMGWYRPAPGKERELVATITYSSGSTSYADSVKGRFTISRDNAKNTVYLQMNSLKPEDTAVYYCATDIHSVHNNRDKHDYDYWGQGTQVSVSS,low polyreactivity
6,QVQLVESGGGLVQAGGSLRLSCAASGRTFVSYAMGWYRQAPGKERELVAAISSSGGSTYYADSVKGRFTISRDNAKNTVYLQMNSLKPEDTAVYYCAADTTTRAYVEMDYWGQGTQVTVSS,low polyreactivity
7,QVQLVESGGGLVQAGGSLRLSSAASGSISPQNVMGWYRQEPGKERELVAAITGGGSTNYADSVKGRFTISRDNAKNTVSLQMNSLKPEDTAVYYCNDDYFQDRLDYWGQGTQVTVSS,low polyreactivity
8,QVQLVESGGGLVQAGGSHRLSCAASGITFTVNSMGWYRQAPGKERELVAAISNDGSTYYADSVKGRFTISRDNAKNTVYLQMNSLKPEDTAVYYCAADTWDDFGPYGYDYWGQGTHVTVSS,low polyreactivity
9,QVQLVESGGGLVQAGGSLRLSCAASGYTFRYYAMGWYRQAPGKERELVAAISSSGGNTYYADSVKGRFTISRDNAKNTVYLQMNSLIPEDTAVYYCAARRYQYPGHSLGYYYTDYYWGQGTQVTVSS,low polyreactivity
10,QFQLVDSGRGLVQAGGSLRLSCAASGRTFPHYAMGWYRQAPGKERELVAAISSRGGSTYYADSVKGRFTISRDNVKNTVYLQMNSLKPEDTAVYYCAATVGLYRSREYGYWGQGTQVTVSS,low polyreactivity
11,QVQLVESGGGLVQAGGSLSISCAASGSIFLAYDMGWYRPAPGKARELVAAITAGTGSTYYADSVKGRFTISRDNAKNTVYLQMTSLKPDDTAVYYCAAELWGGTYGEYEYWGQGTQVTVSS,low polyreactivity
12,QVQLVESGGGLVQAGGSLRLSCAASGIIFLNNAMGCYRQAPGKERELVAAITRTSTSTYYADSVKGRFTISRDNAKNTVYLQMNSLKPEDTAVYYSLVYWGQGTQVTVSS,low polyreactivity
13,QVQLRESGCGLVQAGGNLRLSCAASGNIFDADIMGWYRQAPGKERELVASITDGGSTYYADSVRCRFTISRDNAKNTVYLQMNSLKPEDTAVYYCTAIAYPDIPTYFDHDSDYFYWGQGTQVTVSS,high polyreactivity
14,QVHLLESGRGLVQAGGSLRLSCAASGRIFYTNAMGSYRQAPGKERELVAVISWGGDTTYYADSVKGRFTISRDNAKNTVYLQMNSLKPEDTAGYYCNADWGPTYEISDSWGQGNQVTVSS,low polyreactivity
15,QVQLVESGGGIVQAGGSLRLSCAASGSTFGWYAMGWYRPAPGKERELVAAISTSGNTYYADSVKGRFTISRDNAKNTVYLQLNSLKPEDTAVYYCAKYVNPDHDYWGQGTQVTVSS,low polyreactivity
16,QVQLVESGGGLVQAGGSLRLSCAASGITFQRYAMGWYRQAPGKERELVAAISTNGGTTYYADSVKGRFTISRDNAKNTVYLQMNSLKPEDTAVYYCNAESGYVYYFRYNYLGQGTQVTVSS,high polyreactivity
17,QVQLVESGGGLVQAGGSLRLSCAASGRNFGYYVMGWYRQAPGKERELVAAIRSSADSTYYADSVKGRFTISRDNAKNTVYLQMNSLKPEDTAVYYCAAQSPAYYTKCYWGQGTQVTVSS,low polyreactivity
18,QVQLVESGGGLVQAGGSLRLSCAASGFIFRYYAMGWYRQAPGKERELVARINRSGGSTYYADSVKGRFTISRDNAKNTVYLQMNSLKPEDTAVYYCAKDRTSYYSWYGYWGQGTQVTVSS,high polyreactivity
19,QVQLVESGGGLVQAGGSLRLSCAASGIILYRNGMGWYRQAPGKERELVAAISWSTGSTYYADSVKGRFTISRDNAKYTVYLQMNSLKPEDTAVYYCATDYVGYSFGMYYWGQGTQVTVSS,low polyreactivity
20,QVQLVESGGGLVQAGGSLRLSCAASGSIFKKYAMGWYRQAPGKERELVAAITSGGSTYYADSVKGRFTISRDNAKNTVYLQMNSLKPEDTAVYYCATYRKGSLGSWGQGTQVTVSS,high polyreactivity
21,QVQLVESGGGLVQAGGSLRLSCAASGSINYYAMGWYRQAPGKERELVAAITGSGGSTYYADSVKGRFTISRDNAKNTVYLQMNSLITEDTSVYYCAARYGYIYGPYYYWGQGTQVTVST,high polyreactivity
22,QVQLVESGGGLFQAGGSLRLSCAASGRTFCFYTMGWYRQAPGKASELVAAISSGGSTNYADSVKGRFTISRDNAKNTVYLQMNSLKPEDTAVYYCNARFPVCPSEDAVWYYPKFDYWGQGTQVTVSW,low polyreactivity

row,Sequence,polyreactivity (PSR sort gate)
1,QVQLVESGGGLVQAGGSLRLTCAASGRIFTHNAMGWYRQAPGKVRELVAAITSGGRTTYADSVKGRFTISRDNAKNTVYLQMNSLKPEDSAVYDCNADTGLGSLDFDKRDYWGQGTQVTVSS,low polyreactivity
2,QVQLVESGGGLVQAGGSLRLSCAASGSIFGLYAMGWYRQAPGKERELVAAISTSSGRTYYADSVKGRFTISRDNAKNTVYLQMNSLKPEDTAVYYCNARVYVTSGFRYDYWGQGTQVTVSS,high polyreactivity
3,QVQLVESGGRLVQAGGSLRLSCAASGRTFRGYAMGWYRQAPGKEREWVAAISSGGSTYYADSVKGRFTISRDNAKNTVYFQMNSLKPEDTAVSYCDRAVGNYRTLEFDYWGQGTQVTVSS,low polyreactivity
4,QVQLVESGGGLVQAGGSLRLSCAASGITFRRNAMGWYRQAPGKERELFAGITRGGTTKYADSVKGRFTISRDNAKNTVYLQMNSLKPEDTAVYFCAAKDNSYGGPPQFGYWGQGTQVTVSS,high polyreactivity
5,QVQLVESGGGLVQAGGSLRLSCAASGSTFGAYAMGWYRQAPGKERELVAAISRSGASTYYADSVKGRFTISRDNAKNTVYLQMNSLKPVDTAVYYCAAKIVSRYRVIYDYWGQGTQVTVSS,high polyreactivity
6,QVQLVESGGGLVQAGGSLRLSCAASGAIFAYNAMGWYRQAPGKEREFVAAISQSGGRTYYADSVKGRFTISRDYEKNTVYLQMNTLKPEDTAVYYCATDGIRLTSHRDYDYWGQGTQVTVSS,low polyreactivity
7,QVQLVESGGGLVQAGGSLRLSCAASGRTFPLYAMGWYRQAPGKERELVASITSDSSTYYADSVKGRFTISRDNAKNTVYLQMNSLKPEDTAVYYCAATTIPYPYTEFDYWGQGTQVTVSS,low polyreactivity
8,QVQLVESGGGLVQAGGRLRLSCAASGSTFGINAMGWYRQAPGKERELVAAITSTGRTYYADSVKGRFTISRDNAKNTVYLQMNSLKPEDTAVYYCAAVWRYKGLLLPSYYYWGQGTQVTVSS,high polyreactivity
9,QVQLVESGGGLVQAGGSLRLSCAASGFISARYAMGWYRQAPGKERELVAGISGGGGRTYYADSVKGRFTISRDNAKNTVYLQMNSLKPEDTAVYYCASTQQSRDRRFNYWGQGTQVTVSS,high polyreactivity
10,PVQLVESGGGVVQAGGSLRVSCAASGSIFYVYAMGWYRQAGGKEWELVAAINPSGGSTFYADSVKGRFTISRDNAKTTDYLQMNSLTPEHTAVYYCAAERYRYRSTDTMGYWGQGTQVTVSS,low polyreactivity
11,QVQLVESGGGLVQAGGSLRLSCAASGITIRYYTMGWYRQAPGKERELVASISWSGTSTHYADSVKGRFTISRDNAKNTVYLQMNSLKPEDTAVYYCAATITSLAGGYRNGYTSYYWGQGTQVTVSS,high polyreactivity
12,QVQLVESGGGLVQAGGSLRLSCAASGITFIRYAMGWYRQAPGKERELVAVITRSGGRTYYADSVKGRFTISRDNAKNTVYLQMNILKPEDTAVYYCAARAYGYDEYEYWGQGTQVTVSS,high polyreactivity
13,QVQLVESGGGLVQAGGSLRLSCAASGRTFRLYAMGWYRQAPGKERELVAAISWRGGSTYYADSVKGRFTISRDNAKNTVYLQMNSLKPEDTAVYYCAAGTSRHLSNGYYYWGQGTQVTVSS,high polyreactivity
14,QVQLVESGGGLVQAGGSLRLSCAASGIIFGHYAMGWYRQAPGKERELVARITYSGTRTYYADSVKGRFTISRDNAKNTVYLQMNSLKPEDTAVYYCAAGYAYPRWVTAGNNWGQGTQVTVSS,high polyreactivity
15,QVQLVESGGGLVQAGGSLRLSCAASGSIFVVNAMGWYRQAPGKERELVAGISFRGGTTYYADSVKGRFTISRDNAMNTVYLQMNSLKPEDTAVYYCNAVYTSNRNEYDYWGQGTQVTVSS,low polyreactivity
16,QVQLVESGGGLVQAGGSLRISCAASRSIFPLNAMGWYRQAPGKERELVAAITRSGGSTYYADSVKGRFTISRDNAKNTVYLQMNSLKPEDTAVYYCATDPEWPLPAYYYWGQGTQVTVSS,low polyreactivity
17,QVQLVESGVGLVQAGGRLRLSCAASGLIFNDNMGWYRQSPGKEREVVAAISSSGGSTSYADSVKGRFTISRDNAKNTVYLQMNSLKPEDTAVYYCAADSYPAYLGFVGFDYWGQGTQVTVSS,low polyreactivity
18,QVQLVESGGGLVQAGGSLRLSCAASYYAMGWYRQAPAKERELVASISSGGSTNYADSVKGRFTISRDNAKNTVFFQMNSLKPEDTAVYYCAADVADGVWVKIADEYWGQGTQVTVSS,low polyreactivity
19,QVQLVESGGGLVQAGGSLRLSCAASGSTFGYYTMGWYRQAPGKERELVASISWSGASTHYADSVKGRFTISRDNAKNTVYLPMNRLKPEDTAVYYCAADSYPAYLGFVGFDYWGQGTQVTVSS,low polyreactivity
20,QVQLVESGGGLVQAGGSLRLSCAASGFIFRWYAMGWYRQAPGKERELVAANSSGSSTTYADSVKGRFTISRDNAKNTVYLQMNSLKPEDTAVYYCNRGPRIYRYQYDYWGQGTQVTVSS,high polyreactivity
21,QVQLVESGGGLVQAGGSLRLSSAASGSTFGAYAMGWYRQAPGKERELVAVINSDGSTNYADSVKGRFTISRDNAKNTVYLQMNSLKPEDTAVYFCAKERTSRGGVPRMNYWGQGTQVTVSS,low polyreactivity
